Assay results: patent US20220127355A1 (INTEGRAL MOLECULAR, published 2022)

T1: Claudin 9 (UniProt O95484 1-217)
T1 construct: Octet KD values: intact claudin protein embedded in virus-like particles (lipoparticles); also called CLDN9
T1 sequence (looked up): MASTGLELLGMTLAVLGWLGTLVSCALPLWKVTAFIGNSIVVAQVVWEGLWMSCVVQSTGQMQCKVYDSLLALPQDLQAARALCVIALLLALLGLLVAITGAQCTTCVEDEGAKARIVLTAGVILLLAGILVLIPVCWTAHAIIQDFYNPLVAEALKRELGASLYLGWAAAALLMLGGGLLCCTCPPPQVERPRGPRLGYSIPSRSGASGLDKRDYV

T2: Claudin 3 (UniProt O15551 1-220)
T2 construct: also called CLDN3
T2 sequence (looked up): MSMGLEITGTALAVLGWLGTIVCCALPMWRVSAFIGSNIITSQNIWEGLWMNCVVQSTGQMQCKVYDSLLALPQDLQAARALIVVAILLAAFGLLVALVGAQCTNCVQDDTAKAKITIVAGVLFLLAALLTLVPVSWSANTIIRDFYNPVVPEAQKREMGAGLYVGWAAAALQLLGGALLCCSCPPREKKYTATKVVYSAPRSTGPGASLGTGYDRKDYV

T3: Claudin 4 (UniProt O14493 1-209)
T3 construct: also called CLDN4
T3 sequence (looked up): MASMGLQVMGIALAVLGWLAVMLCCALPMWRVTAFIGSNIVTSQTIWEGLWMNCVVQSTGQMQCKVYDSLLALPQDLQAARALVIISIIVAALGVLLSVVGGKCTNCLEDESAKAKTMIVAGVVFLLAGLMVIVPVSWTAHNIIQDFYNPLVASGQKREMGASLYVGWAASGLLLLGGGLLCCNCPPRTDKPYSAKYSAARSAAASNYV

T4: Claudin 6 (human) (human, UniProt P56747 1-220)
T4 construct: Expressed on transfected HEK-293T cells or naturally on PA-1 cells for flow cytometry; For the Octet KD values it was the intact protein embedded in virus-like particles (lipoparticles); also called hsCLDN6; CLDN6
T4 chain: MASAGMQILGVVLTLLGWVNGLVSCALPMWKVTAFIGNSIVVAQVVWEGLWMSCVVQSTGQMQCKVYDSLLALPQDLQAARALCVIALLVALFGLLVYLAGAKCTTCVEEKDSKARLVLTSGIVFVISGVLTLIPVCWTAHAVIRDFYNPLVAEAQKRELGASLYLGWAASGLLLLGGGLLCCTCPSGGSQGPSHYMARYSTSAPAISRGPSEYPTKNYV

B1: IM136 (antibody, V domains shown)
VH: AVTLDESGGGLQTPGGVLSLVCKASGFSFSSYDMGWVRQAPGKGLEWVASIYSSASSTYYAPAVKGRATITRDNGQSTVRLQLNNLRAEDTGTYYCAKAAGRTYRGWATYIADSIDAWGHGTEVIVSS
VL: ALTQPSSVSANPGESVEITCSGDSSWYGYGWYQQKSPGSAPVTLIYESGKRPSDIPSRFSGSTSGSTATLTITGVQADDEAVYYCGSADSNSIGIFGAGTTLTVL
notes: Detected with anti-human IgG Fc secondary
B2: IM271 (antibody, V domains shown)
VH: EVQLLESGGGLVQPGGSLRLSCAASGFTFSSYAMSWVRQAPGKGLEWVAGISSSGRYTGYADSVKGRFTISRDNSKNTLYLQMNSLRAEDTAVYYCAKSVGNGNSWSGYIATSIDAWGQGTLVTVSS
VL: SYELTQPPSVSVSPGQTARITCSGGSGSYGWYQQKPGQAPVLVIYGTNKRPSGIPERFSGSSSGTTVTLTISGVQAEDEADYYCGSADSSTNAGIFGGGTKLTVL

What was measured:
Claudin 9 = target: T1, Claudin 9; test: biosensor (Forte Octet), intact claudin in virus-like particles (lipoparticles)
Description: Affinity of various antibodies against CLDN6 as compared to CLDN9, CLDN3, and CLDN4 was measured using a biosensor. Biosensor affinity measurement of the various antibodies against the proteins was determined using a Forte Octet, which was used for biosensor measurements, using intact claudin proteins embedded in virus-like particles (lipoparticles). The KD for different antibodies is shown below.

Claudin 3 = target: T2, Claudin 3; test: flow cytometry, HEK-293T cells transiently transfected with the indicated claudin; pUC19 = empty vector control
Description: (§1) FIG. 2 illustrates the results of a binding assay showing that Claudin 6 MAbs bind to human Claudin 6 preferentially over other Claudin proteins. Human embryonic kidney 293T (HEK-293T) cells were transiently transfected with DNA for the indicated Claudin protein or empty vector along with GFP (pUC) for 22 hours.

Claudin 4 = target: T3, Claudin 4; test: as above
Description: as §1

Claudin 6 (human) [1] = target: T4, Claudin 6 (human); test: flow cytometry, 66 nM MAb on HEK-293T cells expressing claudin6
Description: Expression and Binding of claudin6 MAbs. Claudin 6 MAbs produced using their natural light chain, or produced using a different light chain. Yield represents the preparation of the purified MAb and ug of protein resulting from the preparation. Binding represents 66 nM of the indicated MAb binding to HEK-293T cells expressing the target claudin6. The Controls represents the same MAbs staining HEK-293T cells not transfectedwith claudin6. Staining was detected by flow cytometry (geometric mean fluorescence). N/A, not available.

Claudin 6 (human) [2] = target: T4, Claudin 6 (human); test: binding assay of the 13th table, method not described
Claudin 6 (human) [3] = target: T4, Claudin 6 (human); test: flow cytometry, HEK-293T cells transfected with plasmids for the indicated proteins; pUC = empty vector control

Binder | Kd (Claudin 9) | binding result (Claudin 3) | binding result (Claudin 4) | Binding (geometric mean fluorescence) (Claudin 6 (human) [1]) | EC50 (Claudin 6 (human) [2]) | EC50 (read off the curve) (Claudin 6 (human) [3])
B1 | 386 nM | no binding (tested: log [mAb] about -7.2 M) | no binding (tested: log [mAb] about -7.2 M) |  |  | 
B2 |  |  |  | 63000 geometric mean fluorescence | < 4 nM | ~0.4 µg/mL
